Values of other authors as cited in PMC4623992.

Target: TLR4 (Homo sapiens) (UniProt O00206)
Chain of UniProt O00206 (O00206 24-631): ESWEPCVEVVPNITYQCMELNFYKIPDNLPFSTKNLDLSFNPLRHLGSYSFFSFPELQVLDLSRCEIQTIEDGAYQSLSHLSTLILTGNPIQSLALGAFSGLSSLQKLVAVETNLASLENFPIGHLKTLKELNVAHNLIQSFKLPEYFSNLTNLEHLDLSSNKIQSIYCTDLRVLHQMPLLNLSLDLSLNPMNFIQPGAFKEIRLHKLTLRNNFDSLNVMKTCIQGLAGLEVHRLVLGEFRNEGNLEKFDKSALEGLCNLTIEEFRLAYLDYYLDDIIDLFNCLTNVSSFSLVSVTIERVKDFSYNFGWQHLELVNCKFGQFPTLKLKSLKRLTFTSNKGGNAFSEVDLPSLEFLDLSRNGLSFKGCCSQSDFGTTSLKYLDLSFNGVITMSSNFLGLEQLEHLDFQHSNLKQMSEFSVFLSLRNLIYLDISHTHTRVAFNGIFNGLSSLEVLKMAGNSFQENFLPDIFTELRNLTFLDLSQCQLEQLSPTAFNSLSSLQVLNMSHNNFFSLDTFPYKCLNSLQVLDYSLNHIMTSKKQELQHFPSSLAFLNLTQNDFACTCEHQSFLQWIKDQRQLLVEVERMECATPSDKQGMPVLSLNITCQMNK

MD-2 (from UniProt Q9Y6Y9)
Kd: 12 nM
